The values below come from patent US8349579B2, “Galectin-3 cleavage as a marker for matrix metalloproteinase activity in cancer” (Wayne State University, priority 2007, dated 2013).

For experiment [1], the system named is gelatinolytic activity (MMP) in MCF10 DCIS.com xenograft sections. As to conditions: DQ gelatin, incubated with EDTA (2 mM in method, 20 mM in FIG. 5 legend).
Protocol: In situ zymography was performed on the fresh frozen DCIS xenografts as described by Mook et. al. (29). In brief, 8 micron thick cryosections were air dried, rehydrated with PBS for 5 min and overlaid with a solution of 50 μg/ml fluorescein-labeled gelatin (DQ gelatin; Molecular Probes, Eugene, Oreg.), 1% w/v low melting temperature agarose (BioWhittaker Molecular Applications, Rockland, Me.) and 5 μg/ml DAPI (Molecular Probes) in PBS in the presence or absence of 2 mM EDTA and incubated on ice for 15 min followed by incubation in a humidified chamber at 37° C. for 2 hr. Protease catalyzed hydrolysis of the heavily labeled and totally quenched DQ Gelatin relieved the intra-molecular self quenching, yielding brightly fluorescent peptide, which was visualized by using imaging microscope.
A further experiment deals with T1, MMP-2 (Homo sapiens, UniProt P08253).
T1 sequence (P08253 110-660): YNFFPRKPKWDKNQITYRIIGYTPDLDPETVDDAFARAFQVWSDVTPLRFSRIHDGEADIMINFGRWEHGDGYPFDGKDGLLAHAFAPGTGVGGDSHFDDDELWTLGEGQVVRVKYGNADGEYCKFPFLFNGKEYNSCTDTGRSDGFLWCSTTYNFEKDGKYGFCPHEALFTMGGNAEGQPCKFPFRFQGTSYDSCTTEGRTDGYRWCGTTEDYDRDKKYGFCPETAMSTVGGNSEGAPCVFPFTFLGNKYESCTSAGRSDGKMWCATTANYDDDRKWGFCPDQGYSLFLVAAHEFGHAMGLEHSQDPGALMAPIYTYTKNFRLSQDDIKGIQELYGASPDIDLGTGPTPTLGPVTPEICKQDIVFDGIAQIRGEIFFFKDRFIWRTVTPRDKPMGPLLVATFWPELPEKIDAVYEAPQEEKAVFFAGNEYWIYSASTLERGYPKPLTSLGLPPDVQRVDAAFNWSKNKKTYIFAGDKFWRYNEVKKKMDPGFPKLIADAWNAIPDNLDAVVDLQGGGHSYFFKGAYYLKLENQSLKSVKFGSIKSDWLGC
Briefly: Cleavage of recombinant galectin-3 proteins by activated MMP-2 (Western blot). Type of experiment: biochemical. The settings on record: purified active MMP-2, 15 min, 37° C.

A further experiment addresses MMP-9 (Homo sapiens, UniProt P14780). Put plainly: Cleavage of recombinant galectin-3 proteins by activated MMP-9 (Western blot). Type of experiment: biochemical. The settings on record: purified active MMP-9, 60 min, 37° C.
For another experiment, the system named is MDA-MB-435 tumors. As to conditions: mice bearing MDA-MB-435 tumors, injection; cited from earlier work.

Sequence of MMP-9 (P14780 107-707 limits assumed): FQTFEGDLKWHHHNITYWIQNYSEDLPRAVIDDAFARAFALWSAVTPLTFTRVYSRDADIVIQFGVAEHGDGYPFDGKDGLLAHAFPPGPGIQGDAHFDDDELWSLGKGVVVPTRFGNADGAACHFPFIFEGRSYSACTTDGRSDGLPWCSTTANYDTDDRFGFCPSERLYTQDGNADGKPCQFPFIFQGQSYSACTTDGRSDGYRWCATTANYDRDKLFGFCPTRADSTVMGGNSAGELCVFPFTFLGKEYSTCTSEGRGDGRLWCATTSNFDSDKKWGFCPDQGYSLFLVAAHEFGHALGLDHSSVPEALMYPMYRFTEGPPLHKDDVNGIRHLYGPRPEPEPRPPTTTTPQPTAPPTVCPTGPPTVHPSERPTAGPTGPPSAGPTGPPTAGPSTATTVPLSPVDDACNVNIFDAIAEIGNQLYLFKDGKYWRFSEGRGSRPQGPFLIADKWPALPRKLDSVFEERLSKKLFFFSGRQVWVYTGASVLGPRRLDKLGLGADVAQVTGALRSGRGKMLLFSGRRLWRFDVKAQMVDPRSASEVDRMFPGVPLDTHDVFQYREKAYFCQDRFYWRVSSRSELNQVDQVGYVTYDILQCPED

Take `O=C(O)CN(CCN(CC(=O)O)CC(=O)O)CC(=O)O` [EDTA]: in experiment [1], the “gelatinolytic activity in the stroma” value is recorded as “abrogated”. “A33G: recombinant galectin-3 mutant with A33G substitution”: the “polypeptide produced upon incubation with MMP-2” value with MMP-2 is approximately 22 kDa. The “polypeptide produced upon incubation with MMP-9” value in the experiment with MMP-9 is listed as approximately 22 kDa.

Take “Wild type galectin-3: recombinant human wild type galectin-3, isolated from a GST fusion protein”: in the experiment with MMP-2, the “polypeptide produced upon incubation with MMP-2” value is given as approximately 22 kDa. In addition, the “polypeptide produced upon incubation with MMP-9” value in the experiment with MMP-9 is reported as approximately 22 kDa. For the molecule “cleaved galectin-3 peptide containing 108-250 amino acids: cleaved galectin-3 peptide containing 108-250 amino acids, from the literature (ref. 37)”, the “tumor growth and metastasis” value in the experiment with MDA-MB-435 tumors was “loss of tumor growth and metastasis”.
